Ends that are not written are not given here.
B1: LRRC4 peptide fragment: LRRC4 protein fragment, amino acids 353-527 of SEQ ID NO: 1 (protein)
chain: PFIMDAPRDLNISEGRMAELKCRTPPMSSVKWLLPNGTVLSHASRHPRISVLNDGTLNFSHVLLSDTGVYTCMVTNVAGNSNASAYLNVSTAELNTSNYSFFTTVTVETTEISPEDTTRKYKPVPTTSTGYQPAYTTSTTVLIQTTRVPKQVAVPATDTTDKMQTSLDEVMKTTK
B2: LRRC4B (364-576): FLAG-tagged LRRC4B deletion construct, amino acids 364-576 of SEQ ID NO: 2 (protein)
chain: PVIVEPPTDLNVTEGMAAELKCRTGTSMTSVNWLTPNGTLMTHGSYRVRISVLHDGTLNFTNVTVQDTGQYTCMVTNSAGNTTASATLNVSAVDPVAAGGTGSGGGGPGGSGGVGGGSGGYTYFTTVTVETLETQPGEEALQPRGTEKEPPGPTTDGVWGGGRPGDAAGPASSSTTAPAPRSSRPTEKAFTVPITDVTENALKDLDDVMKTTK
modifications: FLAG tag
B3: LRRC4C peptide fragment: LRRC4C protein fragment, amino acids 354-527 of SEQ ID NO: 3 (protein)
chain: VIVEPPADLNVTEGMAAELKCRASTSLTSVSWITPNGTVMTHGAYKVRIAVLSDGTLNFTNVTVQDTGMYTCMVSNSVGNTTASATLNVTAATTTPFSYFSTVTVETMEPSQDEARTTDNNVGPTPVVDWETTNVTTSLTPQSTRSTEKTFTIPVTDINSGIPGIDEVMKTTK
B4: LRRC4 full-length ectodomain: full-length ectodomain of LRRC4 protein, amino acid residues 39-527 of SEQ ID NO: 1, conjugated to human Fc (protein)
chain: ASAGPQNCPSVCSCSNQFSKVVCTRRGLSEVPQGIPSNTRYLNLMENNIQMIQADTFRHLHHLEVLQLGRNSIRQIEVGAFNGLASLNTLELFDNWLTVIPSGAFEYLSKLRELWLRNNPIESIPSYAFNRVPSLMRLDLGELKKLEYISEGAFEGLFNLKYLNLGMCNIKDMPNLTPLVGLEELEMSGNHFPEIRPGSFHGLSSLKKLWVMNSQVSLIERNAFDGLASLVELNLAHNNLSSLPHDLFTPLRYLVELHLHHNPWNCDCDILWLAWWLREYIPTNSTCCGRCHAPMHMRGRYLVEVDQASFQCSAPFIMDAPRDLNISEGRMAELKCRTPPMSSVKWLLPNGTVLSHASRHPRISVLNDGTLNFSHVLLSDTGVYTCMVTNVAGNSNASAYLNVSTAELNTSNYSFFTTVTVETTEISPEDTTRKYKPVPTTSTGYQPAYTTSTTVLIQTTRVPKQVAVPATDTTDKMQTSLDEVMKTTK
modifications: conjugated to human Fc

The molecules below were run against T1, FAM19A5 protein (Homo sapiens, UniProt Q7Z5A7) (assay: Co-immunoprecipitation of FLAG-tagged LRRC4 family deletion constructs/fragments with recombinant FAM19A5 in HEK293 cells). Conditions: HEK293 cells expressing FLAG-tagged construct, recombinant FAM19A5 1 μM 30 minutes; IP anti-FLAG, blot anti-FAM19A5 (3-2).
Format: binding
Protocol: To understand the interaction between FAM19A5 and members of the LRRC4 protein family, HEK293 cells were modified to express a FLAG-tagged member of the LRRC4 protein family, i.e., LRRC4C protein, LRRC4 protein, or LRRC4B protein. Then, the HEK293 cells or primary cortical neurons were treated with recombinant FAM19A5 protein (1 μM) for 30 minutes, and the binding between FAM19A5 protein and the different members of the LRRC4 protein family was assessed using both co-immunoprecipitation and immunofluorescence assays.
For the co-immunoprecipitation assay, cell lysates from the different FAM19A5-treated HEK293 cells were collected and immunoprecipitated with an anti-FLAG antibody, anti-FAM19A5 (1-65) antibody, or a human IgG antibody (control). Immunoprecipitated proteins were immunoblotted with anti-FLAG and anti-FAM19A5 (3-2) antibodies. For the immunofluorescence assay, the HEK293 cells treated with the recombinant FAM19A5 protein were immunostained with anti-FAM19A5 (3-2) (to detect FAM19A5 protein expression) and anti-FLAG antibodies (to detect member of the LRRC4 protein family). The primary cortical neurons treated with the recombinant FAM19A5 protein were immunostained with anti-FAM19A5 (3-2) and anti-LRRC4B antibodies. The nuclei were stained with Hoechst33342 (blue).
To determine the specific motif or domain of the LRRC4B protein that is responsible for the binding to a FAM19A5 protein, various FLAG-tagged LRRC4B deletion constructs were generated (see Table 6 below). HEK293 cells were transfected with the different deletion constructs and then treated with recombinant FAM19A5 protein as described in Example 1. Then, the cell lysates from the different HEK293 cells were immunoprecipitated with the anti-FLAG antibody. The immunoprecipitated proteins were immunoblotted with anti-FLAG and anti-FAM19A5 (3-2) antibodies.
As described in Example 2, all members of the LRRC4 protein family were capable of binding to FAM19A5 protein to varying degrees. Therefore, to compare the bindings domains, the amino acid sequences of the LRRC4B, LRRC4, and LRRC4C proteins were aligned. […] Therefore, to assess whether the corresponding positions of LRRC4 and LRRC4C were important in the binding of these proteins to FAM19A5 protein, cDNAs encoding either (i) LRRC4C protein fragment (amino acids 354-527 of SEQ ID NO: 3; SEQ ID NO: 66) or (ii) LRRC4 protein fragment (amino acids 353-527 of SEQ ID NO: 1; SEQ ID NO: 67) were constructed (see Table 7). HEK293 cells were transfected to express either of the protein fragments and then treated with recombinant FAM19A5 protein as described in Example 1. Then, the cell lysates from the different HEK293 cells were immunoprecipitated with the anti-FLAG antibody. The immunoprecipitated proteins were immunoblotted with anti-FLAG and anti-FAM19A5 (3-2) antibodies.
Target sequence in this assay (Q7Z5A7 44-132): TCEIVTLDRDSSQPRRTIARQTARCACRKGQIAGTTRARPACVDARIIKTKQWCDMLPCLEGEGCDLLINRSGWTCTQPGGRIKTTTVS

binding to FAM19A5 protein (co-immunoprecipitation) | Molecule
able to bind to the FAM19A5 protein | B1
able to bind to the FAM19A5 protein | B3

Molecule | binding to FAM19A5 protein (co-immunoprecipitation)
B2 | able to bind to the FAM19A5 protein with varying degree

Each molecule was assayed against T1, FAM19A5 protein (assay: ELISA binding of recombinant FAM19A5 to coated hFc-conjugated LRRC4 family ectodomains, fragments or synthetic peptides). Conditions: hFc-conjugated ectodomain coated 100 nM/well, FAM19A5 0.005-10 nM, 37° C. 1 hour.
Protocol: Next, to confirm the above co-immunoprecipitation results, an ELISA assay was used to measure the binding of the FAM19A5 protein to either the full-length ectodomain of members of LRRC4 protein family or various LRRC4B ectodomain protein fragments. Specifically, an ELISA plate was coated with one of the following LRRC4B ectodomain protein, which was conjugated to human Fc (100 nM/well): (1) full-length ectodomain of LRRC4 protein (amino acid residues 39-527 of SEQ ID NO: 1) (SEQ ID NO: 4); (2) full-length ectodomain of LRRC4B protein (amino acids 36-576 of SEQ ID NO: 2; i.e., construct #7 in Table 6) (SEQ ID NO: 5); (3) full-length ectodomain of LRRC4C protein (amino acids 45-527 of SEQ ID NO: 3) (SEQ ID NO: 6); (4) LRRC4B ectodomain fragment (amino acids 453-576 of SEQ ID NO: 2; i.e., construct #11 in Table 6) (SEQ ID NO: 7); (5) LRRC4B ectodomain fragment (amino acids 484-576 of SEQ ID NO: 2; i.e., construct #12 in Table 6) (SEQ ID NO: 8); (6) LRRC4B ectodomain fragment (amino acids 482-576 of SEQ ID NO: 2) (SEQ ID NO: 9); (7) LRRC4B ectodomain fragment (amino acids 482-497 of SEQ ID NO: 2) (SEQ ID NO: 10); and (8) LRRC4B ectodomain fragment (amino acids 498-576 of SEQ ID NO: 2; i.e., construct #13 in Table 6) (SEQ ID NO: 11). Then, recombinant FAM19A5 proteins (0.005, 0.01, 0.025, 0.05, 0.1, 0.25, 0.5, 1, 2.5, 5, and 10 nM) were added to the relevant wells, and the plates were incubated at 37° C. for 1 hour. Afterwards, the amount of LRRC4B-bound FAM19A5 protein was detected using HRP-conjugated anti-FAM19A5 (1-65) antibody.
As further confirmation, three synthetic polypeptides comprising amino acids 484-497 of SEQ ID NO: 2 (i.e., YTYFTTVTVETLET; SEQ ID NO: 65) were constructed: (1) FB-16 (GYTYFTTVTVETLETQ; SEQ ID NO: 17), (2) FB-20 ([…]; SEQ ID NO: 18), and (3) FB-28 ([…]; SEQ ID NO: 19). The peptides differed in their total length. The ability of these polypeptides to bind to recombinant FAM19A5 protein was assessed using an ELISA assay as described above.
Target sequence in this assay (Q7Z5A7 44-132): as above

EC50 [nM] | Molecule
0.48 | B4

Each molecule was assayed against hFc-fused hLRRC4B and FAM19A5 complex formation (Homo sapiens, UniProt Q7Z5A7) (assay: Competitive inhibition assay (IC50), plate coated with LRRC4B(453-576, TT/TT)-hFc). Conditions: Table 14; LRRC4B(453-576, TT/TT)-hFc 100 nM coat; peptide 0.03-1000 nM; read-out: IC50 (nM), Inhibition on Complex Formulation between human LRRC4B protein and recombinant FAM19A5 protein (1 ng/mL).
Format: binding
Protocol: The in silico analysis provided in Example 9 highlighted that certain T12 and L13 double mutants might be important in improving the binding affinity of the polypeptides of the present disclosure to the FAM19A5 protein. Therefore, the ability of both the wild-type FB-21 peptide (which is the same as the FB-20 peptide described herein except that the FB-21 peptide additionally contains an alanine at the C-terminus) and several FB-21 mutants were tested for their inhibitor effect on hFc-fused hLRRC4B and FAM19A5 complex formation. Briefly, plate was coated with 100 nM of LRRC4B(453-576, TT/TT)-hFc and then 1 ng/ml of rFAM19A5 was incubated at 37° C. in the presence of increasing concentrations of the different FB-21 peptide fragments (0.03, 0.1, 0.3, 1, 3, 10, 30, 100, 300 and 1000 nM). The LRRC4B-bound FAM19A5 levels were measured using HRP-conjugated 1-65 antibody.

IC50 [nM] | Molecule
9.8 | GYTYFTTVTVEHFETQPGEEA [FB-21 (H12F13)]
9.9 | GYTYFTTVTVEIFETQPGEEA [FB-21 (I12F13)]
47.9 | GYTYFTTVTVEMRETQPGEEA [FB-21 (M12R13)]
39 | GYTYFTTVTVEPYETQPGEEA [FB-21 (P12Y13)]
39.9 | GYTYFTTVTVEQRETQPGEEA [FB-21 (Q12R13)]

These molecules were tested against T1, FAM19A5 protein (assay: competitive inhibition ELISA, 20 nM peptide, rFAM19A5 5 ng/mL; competitor: coated LRRC4B(36-576)-hFc). Conditions: not given.

Inhibition rate (%) | Molecule
16.8 | KNYTYFTTVTVNKETQ [FB-m9dC]
7.7 | KNTYFTTVTVETNKETQ [FB-m10dN]
2 | KNTTVTVETNKETQ [FB-m7dN]
3.3 | KNFTTVTVETNKETQ [FB-m8dN]
5.1 | KNYTYFTTVTNKETQ [FB-m8dC]
14.9 | KNYTYFTTNKETQ [FB-m6dC]
4.4 | KNYTYFTTVNKETQ [FB-m7dC]
62 | KNYTYFTTVTVENKETQ [FB-m10dC]
65 | KNYTYFTTVTVETNKETQ [FB-m11dC]
2.5 | KNYFTTVTVETNKETQ [FB-m9dN]

What follows are molecules tested against T1, FAM19A5 protein (assay: competitive inhibition ELISA, 20 nM peptide, rFAM19A5 1 ng/mL; competitor: coated LRRC4B(453-576)-hFc). Conditions: not given.

Inhibition rate (%) | Molecule
2.7 | KNYTYFTTVTVNKETQ [FB-m9dC]
0 | KNTYFTTVTVETNKETQ [FB-m10dN]
-1.8 | KNTTVTVETNKETQ [FB-m7dN]
-1.1 | KNFTTVTVETNKETQ [FB-m8dN]
-0.9 | KNYTYFTTVTNKETQ [FB-m8dC]
5.5 | KNYTYFTTNKETQ [FB-m6dC]
0.4 | KNYTYFTTVNKETQ [FB-m7dC]
21.9 | KNYTYFTTVTVENKETQ [FB-m10dC]
30.4 | KNYTYFTTVTVETNKETQ [FB-m11dC]
-1.6 | KNYFTTVTVETNKETQ [FB-m9dN]
